Assays:
PEG12-ITIM peptide = test: Solution phosphatase assay (inorganic phosphate release); format: biochemical, mouse; conditions: PEG12-ITIM 10 μM, pH 7.4, 10°C, BIOMOL Green; fit of progress curves
Description: Purified SHP-1 was mixed with PEG12-ITIM peptide at 10 μM, in 10 mM Hepes (pH 7.4), 150 mM NaCl, 3 mM EDTA, 0.005% Surfactant P20, and 1 mM dithiothreitol (Sigma). Temperature was regulated to 10°C with a thermocycler heat block, and the production of inorganic phosphate was measured at the indicated time points using BIOMOL Green (Enzo Life Sciences).
The resulting progress curves (Fig. 1B) were fit using a standard mathematical model ([20]) based on the following reaction scheme F+S^*⇌koffkonCkcat⇀F+S where F is the phosphatase, S* is the phosphorylated peptide substrate, S is the unphosphorylated peptide product, and C is the intermediate enzyme-substrate complex. This reaction scheme corresponds to the following coupled ODEs ∂F/∂t=−konFS*+(koff+kcat)C∂S*/∂t=−konFS*+koffC∂C/∂t=konFS*−(koff+kcat)C∂S/∂t=kcatC with the following conservation equations for the enzyme and substrate, FT=E+CST=S*+C+S where FT is the initial SHP-1 concentration and ST is the initial concentration of phosphorylated substrate. A common assumption for in vitro solution-based enzyme assays is that the enzyme-substrate complex (C) changes on a […] time scale compared to the time scale of product formation (that is, ∂C/∂t ≈ 0). Using this quasi–steady-state approximation, which is valid when E ≪ S + Km ([46], [47]), we find C = FTS^∗/(Km + S^∗). […] The initial condition is S(t = 0) = 0. […]

PEG28-ITIM = test: SPR of SHP-1 injected over immobilised PEG28-ITIM: binding constants (MPDPDE fit); set-up: species or system mouse; conditions: tethered SPR assay with active PTP domain
Description: A construct expressing murine SHP-1 with an N-terminal 6× His tag was provided by M. H. Brown. Mutation of the SH2 domains was performed using a quick-change strategy. The mutations introduced were R30K and R33E for the N-terminal SH2 domain mutant and R136K for the C-terminal SH2 domain mutant previously shown to result in loss of binding ([6]). All peptides were ordered from PeptideSynthetics and were certified to be >95% pure. Peptides sequences were derived from the membrane-proximal ITIM sequence of mouse LAIR-1 receptor.
Experiments were performed on a Biacore 3000 instrument (GE Healthcare Life Sciences). All experiments were performed at 10°C and with a buffer flow rate of 10 μl/min. The buffer used was Hepes-buffered saline (HBS-EP; GE Healthcare Life Sciences), which contained 10 mM Hepes (pH 7.4), 150 mM NaCl, 3 mM EDTA, and 0.005% Surfactant P20.
A CM5 sensorchip was coupled with streptavidin to near saturation (typically between 4000 and 7000 RU) using the amine coupling kit (GE Healthcare Life Sciences) as described previously ([42]). After streptavidin was coupled, biotinylated peptides were injected to give the indicated concentrations in experimental flow cells, and excess biotin-binding sites were blocked with biotin in HBS-EP. The molar ratio of peptide to streptavidin was kept below 1:1 to ensure that peptide immobilization was random and not clustered on the tetravalent streptavidin molecules. Reference flow cells were treated with buffer and then blocked with biotin; pilot experiments using unphosphorylated control peptides in reference flow cells were indistinguishable from buffer-treated reference flow cells when injected with SHP-1. The chip surface was then conditioned with 5 × 5-min injections of HBS-EP. SHP-1 protein in HBS-EP with 1 mM dithiothreitol was then injected over reference and experimental flow cells in series for 5 min at the indicated concentrations. All SPR data were converted from the reference-subtracted data (in resonance units) to fraction bound by dividing the resonance units by the theoretical maximum resonance units expected if the experimental flow cell was saturated with bound SHP-1.
To determine the concentration of peptide in the assays, we first needed a conversion factor between the resonance units and the mass of peptide at the chip surface. We determined this conversion factor by injecting four concentrations of SHP-1 over a control flow cell on a CM5 chip and plotting the mass of SHP-1 injected against the raw resonance unit change. We repeated this on seven flow cells across four sensor chips to get an average slope of 149 ± 15 RU per g/liter (±SEM). […]

Substance: SHP-1: murine SHP-1 tyrosine phosphatase with an N-terminal 6× His tag, expressed in E. coli
- k*cat (= kcat/Km), overall catalytic rate in solution (PEG12-ITIM peptide): 6800 M⁻¹ s⁻¹
- bivalent reactions (in words) (PEG28-ITIM): no evidence for bivalent reactions
